Source: patent US20040054158A1

What was measured:
[1] = molecular target: GL50 (ICOS-ligand) on mouse cells (WEHI 231, undifferentiated CCE ES cells, Balb/C and RAG1 -/- splenocytes) (mouse) (UniProt Q9JHJ8); experiment: flow cytometry, titered staining of WEHI 231 cells
[2] = molecular target: GL50 (ICOS-ligand) on mouse cells (WEHI 231, undifferentiated CCE ES cells, Balb/C and RAG1 -/- splenocytes) (mouse) (UniProt Q9JHJ8); experiment: flow cytometry, Balb/C splenocytes, anti-CD3 stained subset
[3] = molecular target: GL50 (ICOS-ligand) on mouse cells (WEHI 231, undifferentiated CCE ES cells, Balb/C and RAG1 -/- splenocytes) (mouse) (UniProt Q9JHJ8); experiment: flow cytometry, Balb/C splenocytes, anti-CD4 stained subset
[4] = molecular target: GL50 (ICOS-ligand) on mouse cells (WEHI 231, undifferentiated CCE ES cells, Balb/C and RAG1 -/- splenocytes) (mouse) (UniProt Q9JHJ8); experiment: flow cytometry, Balb/C splenocytes, anti CD40 stained subset
[5] = molecular target: GL50 (ICOS-ligand) on mouse cells (WEHI 231, undifferentiated CCE ES cells, Balb/C and RAG1 -/- splenocytes) (mouse) (UniProt Q9JHJ8); experiment: flow cytometry, Balb/C splenocytes, anti CD69 stained subset
[6] = molecular target: GL50 (ICOS-ligand) on mouse cells (WEHI 231, undifferentiated CCE ES cells, Balb/C and RAG1 -/- splenocytes) (mouse) (UniProt Q9JHJ8); experiment: flow cytometry, Balb/C splenocytes, anti-CD19 stained subset
[7] = molecular target: GL50 (ICOS-ligand) on mouse cells (WEHI 231, undifferentiated CCE ES cells, Balb/C and RAG1 -/- splenocytes) (mouse) (UniProt Q9JHJ8); experiment: flow cytometry, Balb/C splenocytes, anti-CD24 stained subset
[8] = molecular target: GL50 (ICOS-ligand) on mouse cells (WEHI 231, undifferentiated CCE ES cells, Balb/C and RAG1 -/- splenocytes) (mouse) (UniProt Q9JHJ8); experiment: flow cytometry, Balb/C splenocytes, anti-CD8a stained subset
[9] = molecular target: GL50 (ICOS-ligand) on mouse cells (WEHI 231, undifferentiated CCE ES cells, Balb/C and RAG1 -/- splenocytes) (mouse) (UniProt Q9JHJ8); experiment: flow cytometry, RAG1-/- splenocytes, anti-CD4 stained subset
[10] = molecular target: GL50 (ICOS-ligand) on mouse cells (WEHI 231, undifferentiated CCE ES cells, Balb/C and RAG1 -/- splenocytes) (mouse) (UniProt Q9JHJ8); experiment: flow cytometry, Balb/C splenocytes, anti-CD11B stained subset
[11] = molecular target: GL50 (ICOS-ligand) on mouse cells (WEHI 231, undifferentiated CCE ES cells, Balb/C and RAG1 -/- splenocytes) (mouse) (UniProt Q9JHJ8); experiment: flow cytometry, Balb/C splenocytes, anti-CD11C stained subset
[12] = molecular target: GL50 (ICOS-ligand) on mouse cells (WEHI 231, undifferentiated CCE ES cells, Balb/C and RAG1 -/- splenocytes) (mouse) (UniProt Q9JHJ8); experiment: flow cytometry, RAG1-/- splenocytes, anti CD69 stained subset
[13] = molecular target: GL50 (ICOS-ligand) on mouse cells (WEHI 231, undifferentiated CCE ES cells, Balb/C and RAG1 -/- splenocytes) (mouse) (UniProt Q9JHJ8); experiment: flow cytometry, RAG1-/- splenocytes, anti-CD24 stained subset
[14] = molecular target: GL50 (ICOS-ligand) on mouse cells (WEHI 231, undifferentiated CCE ES cells, Balb/C and RAG1 -/- splenocytes) (mouse) (UniProt Q9JHJ8); experiment: flow cytometry, Balb/C splenocytes, anti-pan NK stained subset
[15] = molecular target: GL50 (ICOS-ligand) on mouse cells (WEHI 231, undifferentiated CCE ES cells, Balb/C and RAG1 -/- splenocytes) (mouse) (UniProt Q9JHJ8); experiment: flow cytometry, RAG1-/- splenocytes, anti-CD11B stained subset
[16] = molecular target: GL50 (ICOS-ligand) on mouse cells (WEHI 231, undifferentiated CCE ES cells, Balb/C and RAG1 -/- splenocytes) (mouse) (UniProt Q9JHJ8); experiment: flow cytometry, RAG1-/- splenocytes, anti-CD11C stained subset
[17] = molecular target: GL50 (ICOS-ligand) on mouse cells (WEHI 231, undifferentiated CCE ES cells, Balb/C and RAG1 -/- splenocytes) (mouse) (UniProt Q9JHJ8); experiment: flow cytometry, RAG1-/- splenocytes, anti-pan NK stained subset
[18] = molecular target: GL50 (ICOS-ligand) on mouse cells (WEHI 231, undifferentiated CCE ES cells, Balb/C and RAG1 -/- splenocytes) (mouse) (UniProt Q9JHJ8); experiment: flow cytometry, Balb/C splenocytes, anti class II stained subset
[19] = molecular target: GL50 (ICOS-ligand) on mouse cells (WEHI 231, undifferentiated CCE ES cells, Balb/C and RAG1 -/- splenocytes) (mouse) (UniProt Q9JHJ8); experiment: flow cytometry, RAG1-/- splenocytes, anti class II stained subset
[20] = molecular target: GL50 (ICOS-ligand) on mouse cells (WEHI 231, undifferentiated CCE ES cells, Balb/C and RAG1 -/- splenocytes) (mouse) (UniProt Q9JHJ8); experiment: flow cytometry, Balb/C splenocytes, anti-CD45R/B220 stained subset
[21] = molecular target: GL50 (ICOS-ligand) on mouse cells (WEHI 231, undifferentiated CCE ES cells, Balb/C and RAG1 -/- splenocytes) (mouse) (UniProt Q9JHJ8); experiment: flow cytometry, RAG1-/- splenocytes, anti-CD45R/B220 stained subset
[22] = molecular target: GL50 (ICOS-ligand) on mouse cells (WEHI 231, undifferentiated CCE ES cells, Balb/C and RAG1 -/- splenocytes) (mouse) (UniProt Q9JHJ8); experiment: flow cytometry, indirect staining of undifferentiated CCE ES cells
[23] = molecular target: GL50 (ICOS-ligand) on mouse cells (WEHI 231, undifferentiated CCE ES cells, Balb/C and RAG1 -/- splenocytes) (mouse) (UniProt Q9JHJ8); experiment: flow cytometry, RAG1-/- splenocytes, CD11b+ subset (text value; the table prints 31%)

B1: mICOS-mIgG2am (Fc fusion)
chain: EINGSADHRMFSFHNGGVQISCKYPETVQQLKMRLFREREVLCELTKTKGSGNAVSIKNPMLCLYHLSNNSVSFFLNNPDSSQGSYYFCSLSIFDPPPFQERNLSGGYLHIYESQLCCQLKLEPRGPTIKPCPPCKCPAPNLEGGPSVFIFPPKIKDVLMISLSPIVTCVVVDVSEDDPDVQISWFVNNVEVHTAQTQTHREDYNSTLRVVSALPIQHQDWMSGKAFACAVNNKDLPAPIERTISKPKGSVRAPQVYVLPPPEEEMTKKQVTLTCMVTDFMPEDIYVEWTNNGKTELNYKNTEPVLDSDGSYFMYSKLRVEKKNWVERNSYSCSVVHEGLHNHHTTKSFSRTPGK
For B1, the concentration from which staining was minimally detectable [1] was 1 µg/mL, the % ICOS-Ig positive [2] was 10% and the % ICOS-Ig positive [3] was 8%. For the same binder, the % ICOS-Ig positive [4] was 97%, the % ICOS-Ig positive [5] was 25% and the % ICOS-Ig positive [6] was 97%. It also gave a % ICOS-Ig positive [7] of 94%, a % ICOS-Ig positive [8] of 10% and a % ICOS-Ig positive [9] of 45%. For the same binder, the % ICOS-Ig positive [10] was 26%, the % ICOS-Ig positive [11] was 43% and the % ICOS-Ig positive [12] was 5%. For the same binder, the % ICOS-Ig positive [13] was 28%, the % ICOS-Ig positive [14] was 20% and the % ICOS-Ig positive [15] was 31%. It also gave a % ICOS-Ig positive [16] of 55%, a % ICOS-Ig positive [17] of 3% and a % ICOS-Ig positive [18] of 95%. The % ICOS-Ig positive [19] was 3%, the % ICOS-Ig positive [20] was 97% and the % ICOS-Ig positive [21] was 5%. The fluorescence shift over background [22] was 0.5 log and the % ICOS-Ig positive [23] was 35%.
